{"source": "paper PMC10235760", "note": "pKd: −log10 of the molar value."}
{"molecular_target": "SARS-CoV-2 receptor binding domain, omicron subvariant BA5 (RBDBA5) (UniProt P0DTC2)", "assay": "SPR"}
{"substance": "antibody 10-40 H:R100bL", "pKd": 9.81, "ratio to parent": 1.72}
{"substance": "antibody 10-40 L:D51W", "ratio to parent": 0.5}
{"substance": "antibody 10-40 H:S98R", "ratio to parent": 0.26}
{"substance": "antibody 10-40 H:R100bI; H:S32H; L:Q53F", "pKd": 13.30}
{"substance": "antibody 10-40 H:R100bI", "pKd": 10.16, "ratio to parent": 3.83}
{"substance": "antibody 10-40 H:R100bI; H:S32H", "pKd": 11.69, "ratio to parent": 130}
{"substance": "antibody 10-40 L:Q53F", "pKd": 9.73, "ratio to parent": 1.42}
{"substance": "antibody 10-40 H:G27S", "ratio to parent": 0.79}
